Assay [1] has as its target T1, SARS-CoV-2 Spike S1 domain, reference (SARS-CoV-2, UniProt P0DTC2 16-685).
T1 construct: domain: S1; also called S1 subunit
Kind of assay: HTRF, soluble S1 construct.

Assay [2] concerns the target T2, SARS-CoV-2 Spike receptor binding domain (RBD), reference (USA/WA_CDC-WA1/2020) (SARS-CoV-2, UniProt P0DTC2 319-591). The assay can be described thus: HTRF, soluble RBD construct.
Assay [3] deals with T2, SARS-CoV-2 Spike receptor binding …. Kind of assay: SPR, antibody as ligand, RBD as analyte.
Assay [4] addresses T3, SARS-CoV-2 Spike, full-length S (FL, trimer-stabilized), reference (WA1/2020) (SARS-CoV-2, UniProt P0DTC2 14-1208).
T3 construct: also called Spike trimer; intact trimer
The assay can be described thus: SPR, antibody as ligand, Trimer as analyte.

B1: PR194_00232 (antibody, V domains shown)
VH: EVQLVESGGGLVQPGGSLRLSCSASGFTVSSNYMSWVRQAPRKGLEWVSVIYAGGSTFYADSVKGRFTISRDNSKNTLLLQMNSLRAEDTAVYYCARDRGGYLDYWGQGTLVTVSS
VL: DIQMTQSPSSLSASVGDRVTITCRASQGISNYLAWYQQKPGKVPKLLIYAASTLQSGVPSRFSGSGSGTDFTLTISSLQPEDVATYYCQKYNSAPGLTFGGGTKVEIK
notes: also called IMM20190; PR194_00190
B1: the half-maximal effective concentration (EC50) in assay [1] turned out to be 0.056 nM. For the same molecule, it took 0.0682 nM to reach a half-maximal effect in assay [2] (EC50). In assay [3], the dissociation constant (Kd) came out at 1.87 nM, the koff was 0.000376 s⁻¹ and the kon is 202000 M⁻¹ s⁻¹. Further, in assay [4], binding was characterised by a dissociation constant (Kd) of 6.59 nM, the off-rate constant (koff) turned out to be 0.000195 s⁻¹ and the association rate constant (kon) was 29500 M⁻¹ s⁻¹.

B2: PR193_00018 (antibody, V domains shown)
VH: EVQLVESGGGLVQPGGSLRLSCSASGFTFSSFWMSWVRQAPGKGLEWVATIREDGSEKYYVDSVKGRFSISRDNAKNSLYLQMNSLRAEDTAVYYCARSKWLRGSFDYWGQGTLVTVSS
VL: NFMLTQPHSVSESPGKTVTISCTRRSGSIASNYVQWYQQRPGSAPTTVIYEDNQRPSGVPDRFSGSIDSSSNSASLTISGLQTEDEADYYCQSYDSSNPPGASWVFGGGTKLTVL
notes: also called IMM20184; IMM200184
B2 displayed an EC50 in assay [1] of 0.0318 nM. For the same molecule, the concentration giving a half-maximal response (EC50) in assay [2] turned out to be 0.0448 nM. Further, in assay [3], binding was put at a Kd of 22 nM and the koff was 0.00131 s⁻¹. In addition, in assay [4], the Kd came to 7.35 nM, the dissociation rate constant (koff) turned out to be 0.000229 s⁻¹ and the kon turned out to be 31200 M⁻¹ s⁻¹.

B3: PR200_00622 (antibody, V domains shown)
VH: QVQLVESGGGVVQPGRSLRLSCTASGFTFSTYGMHWVRQAPGKGLEWVAVISYDGSSKHYAESVKGRFTISRDNSNNTLYLQMNRLRAEDTAVYYCARDGQPPGWGNYFDYWGQGTLVTVAS
VL: SYVLTQPPSVSVAPGKTARITCGGNGIGSKSVYWYQQKPGQAPEVVVYDDSDRPSGIPERFSGSNSGNTATLTISRVEAGDEADYYCQVWDSSSDPWVFGGGTKLTVL
notes: also called IMM20253; PR200_00253
As for B3, the response in assay [1] was half-maximal at 0.0491 nM (EC50). Further, the EC50 in assay [2] stood at 0.0527 nM. Moreover, in assay [3], the affinity, expressed as Kd, was 0.157 nM; the dissociation rate constant (koff) was found to be 0.000218 s⁻¹; the association rate constant (kon) was determined as 1.39e+06 M⁻¹ s⁻¹. In addition, in assay [4], the affinity, expressed as Kd, was 1.44 nM; the off-rate constant (koff) was found to be 0.000117 s⁻¹; the kon amounted to 81300 M⁻¹ s⁻¹.

For the origin of these results see patent publication US20220235118A1 (IMMUNOME, published 2022).
